The text below walks through data of publication PMC2173304.

The experiment concerns the target peptide corresponding to the cytoplasmic tail of lysosomal acid phosphatase (LAP) (UniProt P11117). The experiment can be described thus: SPR.
Chain of UniProt P11117 (P11117 402-423): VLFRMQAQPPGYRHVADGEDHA

“AP2 complex from pig brain, dephosphorylated with calf intestinal alkaline phosphatase” displayed a fold decrease in affinity against untreated AP2 greater than 4 fold.
